Earlier results, collected in patent US8399407B2 (Case Western Reserve University, priority 2009, dated 2013).

Conditions: pH 7.4 and 37° C.

Asp^B28-insulin
Susceptibility to fibrillation compared with human insulin: more susceptible to fibrillation
